Test results reported in patent publication US20250281608A1.

Molecular target: C1q
Assay: C1q binding assay, format not stated

EC50: 0.9 µg/mL
Substance: rituximab (antibody)
